Reference: article PMC5509211 (2017)
No end group written: not given here.

What was measured:
[1] = biological target: actin filaments (endocytic patches) (Schizosaccharomyces pombe, UniProt P10989); experiment: live-cell fluorescence titration
[2] = biological target: actin filaments (contractile ring) (Schizosaccharomyces pombe, UniProt P10989); experiment: live-cell fluorescence titration

MGVADLIKKFESISKEE (also: mEGFP fusion) [mEGFP-Lifeact] was tested, and the Kd [1] was 20 µM and the Kd [2] was 6.2 µM.
